B1: Cationic Amino acid Transporter 1 (CAT1) from Mus musculus, purified (receptor)
chain: not shown
modifications: N-linked glycans at Asn223 and Asn229
B2: Friend Murine Leukemia Virus receptor binding domain (domain or fragment, UniProt P03390 35-270, looked up)
chain: AAPGSSPHQVYNITWEVTNGDRETVWAISGNHPLWTWWPVLTPDLCMLALSGPPHWGLEYQAPYSSPPGPPCCSGSSGSSAGCSRDCDEPLTSLTPRCNTAWNRLKLDQVTHKSSEGFYVCPGSHRPREAKSCGGPDSFYCASWGCETTGRVYWKPSSSWDYITVDNNLTTSQAVQVCKDNKWCNPLAIQFTNAGKQVTSWTTGHYWGLRLYVSGRDPGLTFGIRLRYQNLGPRVP
modifications: N-linked glycans at Asn46 and Asn202
notes: the previously crystallized construct (PDB 1AOL); Residues 43-265 were built in the cryo-EM model; also called FrMLV-RBD; source: adherent HEK293T cells (lentiviral expression), secreted, purified (Ni-NTA, SEC)

Test [1] concerns the target B2. The test is described as follows: BLI; MmCAT1 (100 nM, twin-strep and GFP tag) loaded on Strep-Tactin XT probes (Gator Pivot); FrMLV-RBD at 2.7 uM, 900, 300, 100 and 33.3 nM; 25 mM HEPES pH 7.5, 125 mM NaCl, 0.003% LMNG, 0.0006% CHS; room temperature; 5 min association, 5 min dissociation. To be noted: both partners purified. A general note: BLI is a label-free optical method that tracks binding on a fibre tip over time.

In test [2] the target is B1. Nature of the test: cryo-EM structure; MmCAT1:FrMLV-RBD complex purified by SEC in LMNG/CHS; apo and with 34 mM arginine, 20 mM lysine or 20 mM ornithine. To be noted: both partners purified. (SEC sorts molecules by how far they enter the pores of the column.)

Two molecules from publication PMC13022406, “Amino acid and viral binding by the high-affinity Cationic Amino acid Transporter 1 (CAT1) from Mus musculus” (Nature Communications, 2026) can be followed below.

For B1, the Kd in test [1] is 9.7 nM. For the molecule B2, the “stoichiometry N” value in test [2] is 1.

The Kd is the free concentration of one partner at which half of the binding sites on the other are occupied at equilibrium, for simple one-to-one binding. Read a high Kd as a looser complex. For orientation: stoichiometry N means a count of units in the complex or per binding partner.
